Read-outs that look alike come from different tables or passages of the source. No end group written: not given here. *: point of attachment. Biotin = O=C1N[C@H]2[C@H](CS[C@H]2CCCCC(=O)*)N1
How the values were obtained:
[1] = molecular target: Recombinant CSP (Wellcome Trust Sanger Institute, FIG. 22), CSP ectodomain with BirA biotinylation tag, biolinker and histidine tag (Plasmodium falciparum strain 3D7) (UniProt Q7K740); experiment: SPR, 2A10 on anti-mouse capture surface, CSP as analyte, 25 C, 1:1 fit
[2] = molecular target: T1, Peptide #9 (Biotin-SGSGDGNADPNANPNV); experiment: BLI, biotin-peptide on streptavidin sensor, IgG1 in solution, 25 C;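 as to Response (nm): antibody solution at 30 µg/mL during association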
T1 construct: alanine scan variant; also called Peptide #9 44293
T1 peptide: Biotin-SGSGDGNADPNANPNV

[3] = molecular target: T2, Peptide #7 (Biotin-SGSGDANPDPNANPNV); experiment: as above
T2 construct: alanine scan variant; also called Peptide #7 44291
T2 peptide: Biotin-SGSGDANPDPNANPNV

[4] = molecular target: T3, Peptide #11 (Biotin-SGSGDGNPDANANPNV); experiment: as above
T3 construct: alanine scan variant; also called Peptide #11 44295
T3 peptide: Biotin-SGSGDGNPDANANPNV

[5] = molecular target: T4, Peptide #16 (Biotin-SGSGDGNPDPNANPAV); experiment: as above
T4 construct: alanine scan variant; also called Peptide #16 44300
T4 peptide: Biotin-SGSGDGNPDPNANPAV

[6] = molecular target: T5, Peptide #14 (Biotin-SGSGDGNPDPNAAPNV); experiment: as above
T5 construct: alanine scan variant; also called Peptide #14 44298
T5 peptide: Biotin-SGSGDGNPDPNAAPNV

[7] = molecular target: T6, Peptide #12 (Biotin-SGSGDGNPDPAANPNV); experiment: as above
T6 construct: alanine scan variant; also called Peptide #12 44296
T6 peptide: Biotin-SGSGDGNPDPAANPNV

[8] = molecular target: T7, Peptide #4 (Biotin-SGSGNPDPNANP); experiment: as above
T7 construct: also called Peptide #4 44285
T7 peptide: Biotin-SGSGNPDPNANP

[9] = molecular target: T8, Peptide #15 (Biotin-SGSGDGNPDPNANANV); experiment: as above
T8 construct: alanine scan variant; also called Peptide #15 44299
T8 peptide: Biotin-SGSGDGNPDPNANANV

[10] = molecular target: T9, Peptide #6 (Biotin-SGSGAGNPDPNANPNV); experiment: as above
T9 construct: alanine scan variant; also called Peptide #6 44290
T9 peptide: Biotin-SGSGAGNPDPNANPNV

[11] = molecular target: T10, Peptide #8 (Biotin-SGSGDGAPDPNANPNV); experiment: as above
T10 construct: alanine scan variant; also called Peptide #8 44292
T10 peptide: Biotin-SGSGDGAPDPNANPNV

[12] = molecular target: T11, Peptide #10 (Biotin-SGSGDGNPAPNANPNV); experiment: as above
T11 construct: alanine scan variant; also called Peptide #10 44294
T11 peptide: Biotin-SGSGDGNPAPNANPNV

[13] = molecular target: T12, Peptide #17 (Biotin-SGSGDGNPDPNANPNA); experiment: as above
T12 construct: alanine scan variant; also called Peptide #17 44301
T12 peptide: Biotin-SGSGDGNPDPNANPNA

[14] = molecular target: T13, Peptide #1 (Biotin-SGSGKPKHKKLKQPGDGNPDPNANP) (N-terminal biotin); experiment: as above
T13 construct: also called Peptide #1 44286
T13 peptide: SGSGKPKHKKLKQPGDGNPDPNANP

[15] = molecular target: T14, Peptide #5 (Biotin-SGSGDGNPDPNANPNV), original sequence of the alanine scan; experiment: as above
T14 construct: also called Peptide #5 44289
T14 peptide: Biotin-SGSGDGNPDPNANPNV

[16] = molecular target: T15, Peptide #3 (Biotin-SGSGHKKLKQPGDGNPDPNANPN) (N-terminal biotin); experiment: as above
T15 construct: also called Peptide #3 44288
T15 peptide: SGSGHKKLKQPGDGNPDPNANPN

[17] = molecular target: T16, Recombinant CSP (Wellcome Trust Sanger Institute, FIG. 22), CSP ectodomain with BirA biotinylation tag, … (Plasmodium falciparum strain 3D7, UniProt Q7K740 19-376, biotinylated at the BirA substrate peptide); experiment: SPR, IgG1 captured, CSP as analyte, 40 C; apparent affinity (avidity)
T16 construct: extracellular domain; Expressed in HEK293, 45 kDa; order of the tags is that of the legend, not confirmed; also called biotinylated recombinant CSP

[18] = molecular target: T1, Peptide #9 (Biotin-SGSGDGNADPNANPNV); experiment: BLI, biotin-peptide on streptavidin sensor, IgG1 in solution, 25 C;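 as to Response (nm): antibody solution at 30 µg/mL during association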
[19] = molecular target: T2, Peptide #7 (Biotin-SGSGDANPDPNANPNV); experiment: as above
[20] = molecular target: T3, Peptide #11 (Biotin-SGSGDGNPDANANPNV); experiment: as above
[21] = molecular target: T4, Peptide #16 (Biotin-SGSGDGNPDPNANPAV); experiment: as above
[22] = molecular target: T5, Peptide #14 (Biotin-SGSGDGNPDPNAAPNV); experiment: as above
[23] = molecular target: T6, Peptide #12 (Biotin-SGSGDGNPDPAANPNV); experiment: as above
[24] = molecular target: T7, Peptide #4 (Biotin-SGSGNPDPNANP); experiment: as above
[25] = molecular target: T8, Peptide #15 (Biotin-SGSGDGNPDPNANANV); experiment: as above
[26] = molecular target: T9, Peptide #6 (Biotin-SGSGAGNPDPNANPNV); experiment: as above
[27] = molecular target: T10, Peptide #8 (Biotin-SGSGDGAPDPNANPNV); experiment: as above
[28] = molecular target: T11, Peptide #10 (Biotin-SGSGDGNPAPNANPNV); experiment: as above
[29] = molecular target: T12, Peptide #17 (Biotin-SGSGDGNPDPNANPNA); experiment: as above
[30] = molecular target: T13, Peptide #1 …; experiment: as above
[31] = molecular target: T14, Peptide #5 (Biotin-SGSGDGNPDPNANPNV), …; experiment: as above
[32] = molecular target: T15, Peptide #3 …; experiment: as above
[33] = molecular target: T17, full CSP protein (analyte of Example 12) (Plasmodium falciparum (isolate 3D7), UniProt Q7K740 19-374); experiment: SPR, IgG1 from supernatant on anti-human IgG surface, CSP as analyte, 25 C, 1:1 fit
T17 construct: not shown: C-terminal tags

[34] = molecular target: T16, Recombinant CSP (Wellcome Trust Sanger …); experiment: SPR (ProteOn), biotinylated CSP on NLC chip, Fab as analyte, 25 C, 1:1 fit

Mouse monoclonal antibody 2A10 (IgG2aK)
Kd [1]: 0.04 nM | koff [1]: 9.41e-05 s⁻¹ | kon [1]: 2.23e+06 M⁻¹ s⁻¹

B1: Antibody 669, human IgG1 (antibody, V domains shown)
VH: QVQLVQSGAEVKKPGASVRVSCKASGFTFTSYAMHWVRQAPGQRLEWMGWINAGNGHTKYSQKFQDRVAITRDTSATTVYMDLSSLRSEDTAVYYCTRDGFCTSTTCSDHYGMDVWGQGTTVTVSS
VL: QSALTQPASVSGSPGQSITISCTGTSSDVGSYNYVSWYQQHPGKAPKFMIYDVSKRPSGVSNRFSGSKSGNTASLTISGLQAEDEADYYCCSYAGSSTWVFGGGTKLTVL
notes: human IgG1; HEK (Expi293F) product; also called AB-000669; Ab669
Response (nm) [2]: 3.68 nm | Response (nm) [3]: 3.86 nm | Response (nm) [4]: 2.18 nm | Response (nm) [5]: 3.66 nm | Response (nm) [6]: 0.0239 nm | binding result [6]: no binding (tested: LOD 0.125 nm) | Response (nm) [7]: 2.81 nm | Response (nm) [8]: 5.27 nm | Response (nm) [9]: 2.82 nm | Response (nm) [10]: 3.82 nm | Response (nm) [11]: 3.79 nm | Response (nm) [12]: 4.48 nm | Response (nm) [13]: 3.85 nm | Response (nm) [14]: 5.83 nm | Response (nm) [15]: 3.76 nm | Response (nm) [16]: 5.06 nm | Kd [17]: 0.47 nM | koff [17]: 0.000125 s⁻¹ | kon [17]: 265000 M⁻¹ s⁻¹

B2: Antibody 666, human IgG1 (antibody, V domains shown)
VH: QVQLVQSGAEVKKPGASVKVSCKASGYTFTNYAMHWVRQAPGQRLEWMGWINAGNGNTKYSQNFQGRVTITRDTSASTAYMELSSLRSEDTAVYYCARDEYYASGSYYDYYYYGMDVWGQGTTVTVTS
VL: QSALTQPASVSGSPGQSITISCTGTSSDVGVYNYVSWFQQHPGKAPKLMIYNVSKRPSGVSNRFSGSKSGNTASLTISGLQAEDEADYYCCSYAGSSTWVFGGGTNLTVL
notes: human IgG1; also called Ab666
Response (nm) [18]: 1.75 nm | Response (nm) [19]: 2.99 nm | Response (nm) [20]: 0.982 nm | Response (nm) [21]: 2.7 nm | Response (nm) [22]: 0.0116 nm | binding result [22]: no binding (tested: LOD 0.020 nm) | Response (nm) [23]: 0.0943 nm | Response (nm) [24]: 7.06 nm | Response (nm) [25]: 0.862 nm | Response (nm) [26]: 3.14 nm | Response (nm) [27]: 2.23 nm | Response (nm) [28]: 5.18 nm | Response (nm) [29]: 2.95 nm | Response (nm) [30]: 9.06 nm | Response (nm) [31]: 2.4 nm | Response (nm) [32]: 6.53 nm | kon [33]: 1e+08 M⁻¹ s⁻¹ | Kd [17]: 0.18 nM | koff [17]: 1.7e-05 s⁻¹ | kon [17]: 97000 M⁻¹ s⁻¹

B3: Antibody 668 Fab (Fab, V domains shown)
VH: QVQLVQSGAEVKKPGASVKVSCKASGFTFTDYAMHWVRQAPGQRLEWMGWINAGNGYTKYSQKFQDRLTITRDTFASTVYMELSSLRSEDTTVYYCARDGFCPSNTCSGYYGMDVWGQGTTVTVSS
VL: QSALTQPASVSGSPGQSITISCTGTSSDVGSYNYVSWYQQHPGKAPKLMIYDVNTRPSGVSIRFSASKSGNTASLTVSGLQAEDEAVYYCSSYAGSSTWVFGGGTKLTVL
notes: recombinant human Fab from CHO-3E7 cells, purified on nickel columns
Kd [34]: 12.5 nM | koff [34]: 0.000473 s⁻¹ | kon [34]: 37900 M⁻¹ s⁻¹

B4: Antibody 669 Fab (Fab, V domains shown)
VH: QVQLVQSGAEVKKPGASVRVSCKASGFTFTSYAMHWVRQAPGQRLEWMGWINAGNGHTKYSQKFQDRVAITRDTSATTVYMDLSSLRSEDTAVYYCTRDGFCTSTTCSDHYGMDVWGQGTTVTVSS
VL: QSALTQPASVSGSPGQSITISCTGTSSDVGSYNYVSWYQQHPGKAPKFMIYDVSKRPSGVSNRFSGSKSGNTASLTISGLQAEDEADYYCCSYAGSSTWVFGGGTKLTVL
notes: as for B3
Kd [34]: 126 nM | koff [34]: 0.00211 s⁻¹ | kon [34]: 16800 M⁻¹ s⁻¹

— patent US20180362628A1 (KYMAB, published 2018)
